Changes are numbered by the printed parent chain. Names and notes keep the numbering of the source.
B1: PHD_(Pygo1)–HD1_(BCL9) complex with Pygo1 W390F (complex)
chain: VYPCGICTNEVNDDQDAILCEASCQKWFHRICTGMTETAYGLLTAEASAVFGCDTCMADKDVYVFSTEMANKAAEAVLKGQVETIVSFHI
B2: PHD_(Pygo1)–HD1_(BCL9) complex with Pygo1 I357A (complex)
chain: B1 chain with I18A, F51W

Target: T1, 15-mer H3K4me2 histone tail peptide (histone H3 tail dimethylated at lysine 4) (dimethyl-lysine at K4)
T1 construct: histone H3 N-terminal tail, 15-mer peptide, K4 dimethylated; numbers count on: the mature protein (A1 is the N-terminal residue); Surmise: residues 1-15 of the mature histone H3 (A1 to A15); also called dimethylated histone H3 tail peptide
Assay: ITC; H3K4me2 peptide injected (19 x 2 ul) into the protein; 25 °C; 25 mM Tris pH 8.0, 100 mM NaCl; iTC 200; one-site model
Settings: both partners purified

Binder	Kd [µM]
B1	10.3
B2	13.5

From paper PMC2927781, “Allosteric Remodelling of the Histone H3 Binding Pocket in the Pygo2 PHD Finger Triggered by Its Binding to the B9L/BCL9 Co-Factor” (Journal of Molecular Biology, 2010)
